Assays:
[1] = target: T1, human IGSF11 (VSIG3) expressed on cells (human, UniProt Q5DX21 23-431); assay: IgG FACS Colo741
T1 sequence: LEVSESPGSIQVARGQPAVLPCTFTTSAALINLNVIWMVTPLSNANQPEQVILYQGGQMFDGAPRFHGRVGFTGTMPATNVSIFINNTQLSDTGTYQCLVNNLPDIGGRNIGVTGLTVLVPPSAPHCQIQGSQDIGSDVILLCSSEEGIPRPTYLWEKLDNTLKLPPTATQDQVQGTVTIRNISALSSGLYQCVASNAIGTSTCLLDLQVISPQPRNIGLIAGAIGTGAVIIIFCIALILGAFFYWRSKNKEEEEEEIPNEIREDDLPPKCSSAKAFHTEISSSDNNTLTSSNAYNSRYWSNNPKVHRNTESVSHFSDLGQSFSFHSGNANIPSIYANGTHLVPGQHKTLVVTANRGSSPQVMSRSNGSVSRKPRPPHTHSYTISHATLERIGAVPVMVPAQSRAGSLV
Text: (§1) Unbound antibodies were removed by washing the cells three time with FACS buffer. Bound antibodies were detected with a mouse anti-human IgG antibody conjugated with AlexaFluor647.

[2] = target: T2, murine IGSF11 expressed on cells (mouse, UniProt P0C673 23-428); assay: IgG FACS MC38-wt; MC38-wt cells (murine line, not transfected)
T2 construct: MC38-IGSF11, CT26-IGSF11, MC38-wt (naturally expresses murine IGSF11)
T2 sequence: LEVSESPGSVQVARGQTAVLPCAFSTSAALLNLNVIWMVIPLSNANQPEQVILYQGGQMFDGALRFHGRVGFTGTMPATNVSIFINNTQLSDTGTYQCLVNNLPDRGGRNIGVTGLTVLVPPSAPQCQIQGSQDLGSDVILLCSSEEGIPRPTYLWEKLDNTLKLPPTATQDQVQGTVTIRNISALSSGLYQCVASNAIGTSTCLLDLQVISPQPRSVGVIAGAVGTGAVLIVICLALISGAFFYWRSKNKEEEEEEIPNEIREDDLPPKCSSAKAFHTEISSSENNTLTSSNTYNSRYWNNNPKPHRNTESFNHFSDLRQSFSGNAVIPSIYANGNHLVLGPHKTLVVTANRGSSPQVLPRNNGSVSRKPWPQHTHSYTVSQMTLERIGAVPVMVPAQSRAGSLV
Text: as §1

[3] = target: T3, extracellular domain (ECD) of human IGSF11 (VSIG3), recombinant (human, UniProt Q5DX21 23-241); assay: BLI: biotinylated IGSF11 on streptavidin sensor, ABP bound for 600 s, then VISTA.COMP; VISTA response normalised to that without antibody
T3 construct: biotinylated where captured on streptavidin; tags of the reagent not always stated; also called IGSF11 (ECD domain); ECD-IGSF11
T3 sequence: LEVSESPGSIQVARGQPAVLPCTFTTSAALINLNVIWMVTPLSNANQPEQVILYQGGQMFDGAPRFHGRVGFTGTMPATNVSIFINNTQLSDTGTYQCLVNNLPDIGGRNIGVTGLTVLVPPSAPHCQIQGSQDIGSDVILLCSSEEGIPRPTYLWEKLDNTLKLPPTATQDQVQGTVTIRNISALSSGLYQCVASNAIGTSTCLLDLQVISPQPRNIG
Text: Briefly, biotinylated IGSF11 was loaded on an optical biosensor via a streptavidin surface. The IGSF11-loaded biosensor was dipped into the samples with different concentrations of anti-IGSF11 ABP, and ABPs were bound for 600s.

[4] = target: T2, murine IGSF11 expressed on cells; assay: IgG FACS MC38-IGSF11
Text: as §1

[5] = target: T1, human IGSF11 (VSIG3) expressed on cells; assay: IgG FACS MDA-MB-231-IGSF11
Text: as §1

[6] = target: T3, extracellular domain (ECD) of human …; assay: KinExA, Fab as CBP 15 pM, single binding curve
Experimental: (§2) Solution-based binding affinities were determined using the Kinetic Exclusion Assay (KinExA) 4000 system as described below, where binding partners were combined and allowed to reach equilibrium prior to measurement.
(§3) Briefly, anti-IGSF11 ABPs of the invention as Fabs were used as Constant Binding Partner (CBP) and human recombinant IGSF11 ECD was used as Titrant. After reaching equilibrium, free CBP were detected using PMMA beads coated with IGSF11 ECD or IGSF11 IgC2-domain Fc-fusion protein and an anti-human F(ab′)2 antibody conjugated with AlexaFluor647. […] The CBP was incubated with different Titrant concentrations for 16 h (or 72-90 h) to reach equilibrium. The equilibrium binding curves of different CBP concentrations were measured in duplicates and drift correction was applied. The n-curve analysis tool within the KinExA Pro Software version 4.4.26 was applied to obtain one KD value per set of binding curves by finding the best fit of a 1:1 binding model to the data.

[7] = target: T3, extracellular domain (ECD) of human …; assay: KinExA, Fab as CBP 80 and 800 pM, n-curve
Experimental: as §2, §3

B1: D-114 (IgG format) (antibody, V domains shown)
VH: EVQLLESGGGLVQPGGSLRLSCAASGFTFQFSALSWVRQAPGKGLEWVSAISYGGGSKYYADSVKGRFTISRDNSKNTLYLQMNSLRAEDTAVYYCARDSRDAYGVAFDLWGQGTMVTVSS
VL: ASVLTQPPSVSAAPGQKVTISCSGSSSNIGNNYVSWYQQLPGTAPKLLIYDNNKRPSGIPDRFSGSKSGTSATLGITGLQAEDEADYYCLSYKLSPGAYVFGGGTKLTVL
EC50 [1]: < 0.5 nM | EC50 [2]: < 0.5 nM | IC50 (read off the curve) [3]: ~0.7 nM

B2: D-222 (IgG format) (antibody, V domains shown)
VH: EVQLVESGGGLVKPGGSLRLSCAASGFTFSHAWISWVRQAPGKGLEWVGQIKGGPGSGGTSYAEPVKGRFTISRDDSKNTLYLQMNSLKTEDTAVYYCARLGIYSGFDYWGQGTLVTVSS
VL: SYELTQPPSVSVSPGQTASITCSGDKLGDKYASWYQQKPGQSPVLVIYQDSKRPSGIPERFSGSNSGNTATLTISGTQAEDEADYYCHTYSHRPEIVVFGGGTKLTVL
EC50 [1]: < 0.5 nM | EC50 [4]: < 0.5 nM | EC50 [5]: < 0.5 nM

B3: D-114 (Fab, KinExA constant binding partner) (Fab, V domains shown)
VH: EVQLLESGGGLVQPGGSLRLSCAASGFTFQFSALSWVRQAPGKGLEWVSAISYGGGSKYYADSVKGRFTISRDNSKNTLYLQMNSLRAEDTAVYYCARDSRDAYGVAFDLWGQGTMVTVSS
VL: ASVLTQPPSVSAAPGQKVTISCSGSSSNIGNNYVSWYQQLPGTAPKLLIYDNNKRPSGIPDRFSGSKSGTSATLGITGLQAEDEADYYCLSYKLSPGAYVFGGGTKLTVL
notes: Fab
Kd [6]: < 0.01 nM

B4: D-222 (Fab, KinExA constant binding partner) (Fab, V domains shown)
VH: EVQLVESGGGLVKPGGSLRLSCAASGFTFSHAWISWVRQAPGKGLEWVGQIKGGPGSGGTSYAEPVKGRFTISRDDSKNTLYLQMNSLKTEDTAVYYCARLGIYSGFDYWGQGTLVTVSS
VL: SYELTQPPSVSVSPGQTASITCSGDKLGDKYASWYQQKPGQSPVLVIYQDSKRPSGIPERFSGSNSGNTATLTISGTQAEDEADYYCHTYSHRPEIVVFGGGTKLTVL
notes: Fab
Kd [7]: < 0.15 nM

— patent publication US20220372138A1 (IOMX THERAPEUTICS, published 2022)
